Source: patent US20180117114A1, “PEPTIDES THAT MODULATE THE EFFECT OF THE CRMP: NEUROFIBROMIN COMPLEX ON SYNAPTIC TRANSMISSION” (Indiana University Research and Technology Coporation, priority 2015, published 2018)

Key:
[1] = target: T1, CaV2.2 (Homo sapiens, UniProt Q00975); test: CaV2.2 surface staining in transfected HEK293 cells expressing CaV2.2; format: cell-based; conditions: HEK293 cells expressing CaV2.2, transiently transfected with EGFP-fused plasmids
T1 construct: expressed in transfected cells; host or cells: HEK293 cells expressing CaV2.2
Method: (§1) Recently, it was shown that CRMP-2 facilitates CaV2.2 membrane trafficking in hippocampal and sensory neurons (12, 13), the hypothesis that the CBD3 peptide would act in a dominant negative manner to inhibit this CRMP-2 mediated trafficking was tested. Plasmids containing full-length CRMP-2 or the CBD3 peptide fused to enhanced green fluorescent protein (EGFP) were transiently transfected into human embryonic kidney 293 (HEK293) cells expressing CaV2.2. […] Since CBD3 peptide expression was sufficient in preventing forward trafficking of CaV2.2, it is possible that this would result in loss of currents via these channels. To test this, neurons were transfected with full-length CRMP-2 or CBD3 peptide and measured CaV2.2 currents 2 days post-transfection using whole-cell voltage clamp electrophysiology. Expression of CBD3 reduced peak Ca^2+ current density by ˜64% compared to CRMP-2 neurons (FIGS. 2C and 2D).

[2] = tested on: CaV2.2; test: CaV2.2 currents in transfected neurons by whole-cell voltage clamp electrophysiology; format: cell-based; conditions: compared to CRMP-2 neurons; 2 days post-transfection
Method: as §1

[3] = target: T2, CRMP-2 (Mus musculus, UniProt O08553); test: SPOTS blot of neurofibromin C-terminus peptides overlaid with mouse brain lysate, probed with CRMP-2 antibodies; format: binding; conditions: 15-mers, three CRMP-2 antibodies, FIG. 4
T2 construct: overlaid with wild-type mouse brain lysate in NF1 solubilization buffer; from tissue; host or cells: wild-type mouse brain lysate
Method: FIG. 4 presents plot of mean binding of CRMP-2 to neurofibromin versus peptide blot position. Neurofibromin peptides (15-mers) were spotted onto a SPOTS blot membrane from amino acids 2260-2818 of […], a region where neurofibromin has been reported to bind CRMP-2. The blots were blocked, then overlaid with wild-type mouse brain lysate in NF1 solubilization buffer, washed briefly, then incubated with poly CRMP-2 (Sigma) or mono CRMP-2+poly CRMP-2 phospho Ser522 and Ser555 antibodies. The blots were scanned (Licor) and the spot intensity normalized to the maximum intensity in each series. The normalized data was then averaged and the mean+/−SEM is shown in the graph above (n=3).
Referring now to FIG. 4, peptides encompassing the C-terminus of neurofibromin were spotted with CRMP-2 and the resulting blot was probed with three different CRMP-2 antibodies. […] These peptides are: SEQ ID NO: 1, RVSHGQIKQIIRILS; SEQ ID NO: 2, KGYRHPSPAIVARTV, and SEQ ID NO: 3, YLQSFGFNGLWRFAG. In order to facilitate their entry into cells, each peptide may be fused to a portion of the cell-membrane transduction domain of the human immunodeficiency virus-type 1 (HIV-1) transactivator of transcription (TAT) protein (SEQ ID NO: 4 and/or SEQ ID NO: 6).

T1 sequence (Q00975 whole entry, the tested form may be a part): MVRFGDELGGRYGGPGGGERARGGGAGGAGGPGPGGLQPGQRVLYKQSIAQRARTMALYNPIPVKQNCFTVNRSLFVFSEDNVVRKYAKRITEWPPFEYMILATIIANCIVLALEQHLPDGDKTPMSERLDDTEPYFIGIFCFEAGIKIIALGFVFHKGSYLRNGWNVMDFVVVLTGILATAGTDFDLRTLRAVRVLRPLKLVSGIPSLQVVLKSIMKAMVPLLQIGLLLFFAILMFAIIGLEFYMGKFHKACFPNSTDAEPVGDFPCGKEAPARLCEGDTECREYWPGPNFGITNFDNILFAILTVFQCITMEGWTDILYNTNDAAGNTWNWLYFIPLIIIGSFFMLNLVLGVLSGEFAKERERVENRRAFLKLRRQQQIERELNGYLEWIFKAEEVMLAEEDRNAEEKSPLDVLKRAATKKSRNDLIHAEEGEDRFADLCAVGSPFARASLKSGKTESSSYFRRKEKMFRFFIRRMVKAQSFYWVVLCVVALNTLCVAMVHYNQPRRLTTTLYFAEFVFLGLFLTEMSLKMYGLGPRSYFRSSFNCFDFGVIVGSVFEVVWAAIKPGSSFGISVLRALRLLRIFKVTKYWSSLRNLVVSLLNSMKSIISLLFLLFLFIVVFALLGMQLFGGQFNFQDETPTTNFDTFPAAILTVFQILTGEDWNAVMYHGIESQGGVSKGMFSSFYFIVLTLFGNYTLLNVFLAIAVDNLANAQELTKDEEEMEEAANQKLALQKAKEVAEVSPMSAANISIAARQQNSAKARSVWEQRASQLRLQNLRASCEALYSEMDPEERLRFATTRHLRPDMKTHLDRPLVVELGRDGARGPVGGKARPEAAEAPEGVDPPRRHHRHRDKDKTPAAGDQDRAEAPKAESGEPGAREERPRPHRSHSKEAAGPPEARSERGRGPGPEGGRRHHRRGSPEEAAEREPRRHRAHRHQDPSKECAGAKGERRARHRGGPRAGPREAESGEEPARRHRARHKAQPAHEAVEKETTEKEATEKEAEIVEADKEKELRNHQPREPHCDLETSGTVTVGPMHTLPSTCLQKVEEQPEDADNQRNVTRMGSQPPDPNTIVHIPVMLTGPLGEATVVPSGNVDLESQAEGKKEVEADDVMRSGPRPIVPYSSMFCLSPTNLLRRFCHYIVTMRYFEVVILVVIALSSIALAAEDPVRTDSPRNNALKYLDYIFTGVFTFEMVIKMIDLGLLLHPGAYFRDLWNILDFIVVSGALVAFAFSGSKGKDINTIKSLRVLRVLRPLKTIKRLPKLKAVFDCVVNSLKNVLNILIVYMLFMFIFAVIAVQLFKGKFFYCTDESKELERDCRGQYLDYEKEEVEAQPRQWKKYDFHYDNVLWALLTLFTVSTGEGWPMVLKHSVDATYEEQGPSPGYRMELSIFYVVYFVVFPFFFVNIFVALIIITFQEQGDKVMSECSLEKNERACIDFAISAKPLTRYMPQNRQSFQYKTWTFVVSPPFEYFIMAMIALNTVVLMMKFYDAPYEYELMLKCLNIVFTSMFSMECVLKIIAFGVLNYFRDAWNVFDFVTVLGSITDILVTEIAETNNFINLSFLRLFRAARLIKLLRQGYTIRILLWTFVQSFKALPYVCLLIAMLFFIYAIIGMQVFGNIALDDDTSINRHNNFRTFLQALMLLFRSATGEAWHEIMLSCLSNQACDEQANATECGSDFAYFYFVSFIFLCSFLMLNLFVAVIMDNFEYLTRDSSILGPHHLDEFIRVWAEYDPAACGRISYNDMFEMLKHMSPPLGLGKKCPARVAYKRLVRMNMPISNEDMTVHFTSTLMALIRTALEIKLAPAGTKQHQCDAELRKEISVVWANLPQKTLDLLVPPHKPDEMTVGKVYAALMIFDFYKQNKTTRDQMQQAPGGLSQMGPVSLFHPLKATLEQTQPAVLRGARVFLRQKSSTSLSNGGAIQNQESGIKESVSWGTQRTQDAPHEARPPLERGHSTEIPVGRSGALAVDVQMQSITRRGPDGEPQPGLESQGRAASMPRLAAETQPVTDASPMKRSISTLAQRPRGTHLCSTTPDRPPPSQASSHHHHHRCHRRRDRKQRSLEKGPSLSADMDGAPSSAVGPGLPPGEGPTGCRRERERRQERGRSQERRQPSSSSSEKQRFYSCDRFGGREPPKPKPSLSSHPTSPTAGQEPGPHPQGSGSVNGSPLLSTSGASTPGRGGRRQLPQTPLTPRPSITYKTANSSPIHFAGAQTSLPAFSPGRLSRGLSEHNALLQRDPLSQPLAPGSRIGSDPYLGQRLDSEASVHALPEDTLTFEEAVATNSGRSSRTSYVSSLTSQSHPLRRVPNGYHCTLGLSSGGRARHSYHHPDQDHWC

Sequence	cells exhibiting CaV2.2 surface staining [1] [%]	reduction of peak Ca^2+ current density [2] [%]	CRMP-2 binding to neurofibromin peptides (normalized spot intensity) [3]
DFVYKRIKARSRLAE [CBD3 peptide, a peptide derived from a portion of the CBD3 region; expressed fused to EGFP in b74]	~10	~64	–
KGYRHPSPAIVARTV [SEQ ID NO: 2, a peptide encompassing a portion of the C-terminus of neurofibromin]	–	–	peaks
RVSHGQIKQIIRILS [SEQ ID NO: 1, a peptide encompassing a portion of the C-terminus of neurofibromin]	–	–	peaks
YLQSFGFNGLWRFAG [SEQ ID NO: 3, a peptide encompassing a portion of the C-terminus of neurofibromin]	–	–	peaks
